Publication doi:10.1101/2020.05.04.077941 (bioRxiv, 2020)

Target: purified human recombinant HGF (human, UniProt P14210 32-728)
Assay: far-Western, overlay or dot blot

Sequence of purified human recombinant HGF (P14210 32-728): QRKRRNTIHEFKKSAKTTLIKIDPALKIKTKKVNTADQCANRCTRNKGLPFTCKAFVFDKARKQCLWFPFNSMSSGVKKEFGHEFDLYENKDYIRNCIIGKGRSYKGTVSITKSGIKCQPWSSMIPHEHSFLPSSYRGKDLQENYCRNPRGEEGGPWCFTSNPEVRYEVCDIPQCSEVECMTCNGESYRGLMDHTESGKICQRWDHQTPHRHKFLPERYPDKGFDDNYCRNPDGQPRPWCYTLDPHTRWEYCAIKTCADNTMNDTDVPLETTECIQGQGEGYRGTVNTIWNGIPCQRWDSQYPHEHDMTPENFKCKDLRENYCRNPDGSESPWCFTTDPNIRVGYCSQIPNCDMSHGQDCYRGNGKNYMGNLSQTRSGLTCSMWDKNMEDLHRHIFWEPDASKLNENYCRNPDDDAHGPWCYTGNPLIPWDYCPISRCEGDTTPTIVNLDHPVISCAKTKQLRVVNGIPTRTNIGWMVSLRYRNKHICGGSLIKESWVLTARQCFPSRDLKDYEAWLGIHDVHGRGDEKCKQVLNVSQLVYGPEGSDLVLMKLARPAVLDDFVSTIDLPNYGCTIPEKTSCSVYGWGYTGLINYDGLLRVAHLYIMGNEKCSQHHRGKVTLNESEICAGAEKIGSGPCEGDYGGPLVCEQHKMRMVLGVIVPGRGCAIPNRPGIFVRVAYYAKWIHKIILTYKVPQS

| Binder | binding result |
| --- | --- |
| QEGERVVFTCQATANPEIL [NEPH1-P1 peptide] | binds |
| PDITILLSGQTISDISANVNEGSQQKL [NEPHRIN-P1 peptide] | binds |
